Biological target: microtubule associated protein 1 light chain 3 (LC3), endogenous (human (endogenous in HEK293T)) (UniProt Q9GZQ8)
Test: co-IP

## HIV-1 NL4-3 Gag (p55), expressed from the provirus (natural protein)
  reduction of the binding in SQSTM1-depleted cells relative to the control siRNA: 50%

Source: paper PMC8555152
